Kd data for 1 substance are collected here from article doi:10.1101/2020.09.19.304535.

The target in this assay is GmPUB13(252-630), purified protein (soybean (Glycine max)). Put plainly: ITC.

Regarding “Avr1d, purified protein (ITC and gel filtration) (natural protein)”, the Kd came to 89 nM.
